Consider 11 substances from patent US7423021B2, “Peptidic thrombin inhibitors” (NSCI Novel Science International GmbH, priority 2003, dated 2008).

Square brackets hold non-standard residues; d marks the D form. Phe(4-NO2) = N[C@@H](Cc1ccc([N+](=O)[O-])cc1)C(=O)O; Tpi = O=C(O)[C@@H]1Cc2c([nH]c3ccccc23)CN1; hArg = N=C(N)NCCCC[C@H](N)C(=O)O; Tic = O=C(O)[C@@H]1Cc2ccccc2CN1; Cha = N[C@@H](CC1CCCCC1)C(=O)O; Cit = NC(=O)NCCC[C@H](N)C(=O)O; dCha = N[C@H](CC1CCCCC1)C(=O)O; Phg = N[C@H](C(=O)O)c1ccccc1; Aze = O=C(O)[C@@H]1CCN1

The target of the first test is thrombin (Homo sapiens, UniProt P00734). As to the kind of experiment: in-vitro inhibition of the amidase activity of thrombin (fluorogenic substrate Tos-Gly-Pro-Arg-AMC). Further details: 10 μl of human thrombin solution. Conditions: peptide concentration of 250 nM. Type of test: biochemical. Here is the method: The values of the inhibiting constants Ki were obtained from assays in which thrombin hydrolyzes the fluorogenic substrate Tos-Gly-Pro-Arg-(7-amino-4-methylcumarin). The assays were carried out in […] of assay buffer (0.05 M tris, 0.1 M NaCl, 0.1% PEG 8000, pH 7.6) with 10 μl of human thrombin solution (10^−5 U/μl in the assay buffer) and 140 μl of a solution of the fluorogenic substrate in an assay buffer at a concentration of 30 μM. Solutions of the test compound (10 μl) were added at various concentrations. The rates of the hydrolysis of the substrate were measured by monitoring the reactions at […] of the release of 7-amino-4-methylcumarin using AMC. The reaction reached an equilibrium state within three minutes, after thrombin, the substrate, and an inhibitor were mixed. The kinetic data of the competing inhibition (Km, Vmax, and Ki) were analyzed by means of the representation according to Hanes (A/V against A at various values of A, where A is the substrate concentration and V the reaction rate).
Regarding “N-acetyl-L-Ala-D-Cha-L-Aze-D-Tyr-L-Har amide (Ac-A[dCha][Aze][dY][hArg]-NH2; SMILES CC(=O)N[C@@H](C)C(=O)N[C@H](CC1CCCCC1)C(=O)N1CC[C@H]1C(=O)N[C@H](Cc1ccc(O)cc1)C(=O)N[C@@H](CCCCNC(=N)N)C(N)=O) [Example 19]”, the “inhibition of the amidase activity of the thrombin” value (shortened to “inhibition”) is listed as 77%.

In the case of “N-acetyl-L-Iq3-D-Cha-L-Aze-D-Tyr-L-Har amide (Ac-[Tic][dCha][Aze][dY][hArg]-NH2) [Example 23]”, the “inhibition” value is reported as 72%.

Take “N-acetyl-L-Phg-D-Cha-L-Aze-D-Tyr-L-Har amide (Ac-[Phg][dCha][Aze][dY][hArg]-NH2) [Example 26]”: the “inhibition” value turned out to be 95%.

Turning to “N-acetyl-L-Cha-D-Cha-L-Aze-D-Tyr-L-Har amide (Ac-[Cha][dCha][Aze][dY][hArg]-NH2) [Example 28]”, the “inhibition” value is recorded as 90%.

On to “N-acetyl-L-Nhm-D-Cha-L-Aze-D-Tyr-L-Har amide (Ac-[Tpi][dCha][Aze][dY][hArg]-NH2; SMILES CC(=O)N1Cc2[nH]c3ccccc3c2C[C@H]1C(=O)N[C@H](CC1CCCCC1)C(=O)N1CC[C@H]1C(=O)N[C@H](Cc1ccc(O)cc1)C(=O)N[C@@H](CCCCNC(=N)N)C(N)=O) [Example 22]”, for which the “inhibition” value came out at 80%.

As to “N-acetyl-L-Pnp-D-Cha-L-Aze-D-Tyr-L-Har amide (Ac-[Phe(4-NO2)][dCha][Aze][dY][hArg]-NH2; SMILES CC(=O)N[C@@H](Cc1ccc([N+](=O)[O-])cc1)C(=O)N[C@H](CC1CCCCC1)C(=O)N1CC[C@H]1C(=O)N[C@H](Cc1ccc(O)cc1)C(=O)N[C@@H](CCCCNC(=N)N)C(N)=O) [Example 29]”, the “inhibition” value was 72%.

The test is the same for the next values; noted with them: peptide concentration of 1 μM.
With “N-acetyl-L-Ile-L-Arg-L-Cha-D-Pro-D-Tyr-L-Arg amide (Ac-IR[Cha][dP][dY]R-NH2; SMILES CC[C@H](C)[C@H](NC(C)=O)C(=O)N[C@@H](CCCNC(=N)N)C(=O)N[C@@H](CC1CCCCC1)C(=O)N1CCC[C@@H]1C(=O)N[C@H](Cc1ccc(O)cc1)C(=O)N[C@@H](CCCNC(=N)N)C(N)=O) [Example 5]”, the “inhibition” value was found to be 61%.

In the case of “N-acetyl-L-Ala-L-Cha-D-Pro-D-Tyr-L-Arg amide (Ac-A[Cha][dP][dY]R-NH2; SMILES CC(=O)N[C@@H](C)C(=O)N[C@@H](CC1CCCCC1)C(=O)N1CCC[C@@H]1C(=O)N[C@H](Cc1ccc(O)cc1)C(=O)N[C@@H](CCCNC(=N)N)C(N)=O) [Example 4]”, the “inhibition” value was determined as 44%.

With “N-acetyl-L-Ser-L-Arg-L-Cha-D-Pro-D-Tyr-L-Arg amide (Ac-SR[Cha][dP][dY]R-NH2; SMILES CC(=O)N[C@@H](CO)C(=O)N[C@@H](CCCNC(=N)N)C(=O)N[C@@H](CC1CCCCC1)C(=O)N1CCC[C@@H]1C(=O)N[C@H](Cc1ccc(O)cc1)C(=O)N[C@@H](CCCNC(=N)N)C(N)=O) [Example 11]”, the “inhibition” value was 51%.

For “N-acetyl-L-Tyr-D-Pro-L-Cha-D-Pro-D-Tyr-L-Arg amide (Ac-Y[dP][Cha][dP][dY]R-NH2; SMILES CC(=O)N[C@@H](Cc1ccc(O)cc1)C(=O)N1CCC[C@@H]1C(=O)N[C@@H](CC1CCCCC1)C(=O)N1CCC[C@@H]1C(=O)N[C@H](Cc1ccc(O)cc1)C(=O)N[C@@H](CCCNC(=N)N)C(N)=O) [Example 15]”, the “inhibition” value is 44%.

Turning to “N-acetyl-L-Tyr-L-Cit-L-Cha-D-Pro-D-Tyr-L-Arg amide (Ac-Y[Cit][Cha][dP][dY]R-NH2; SMILES CC(=O)N[C@@H](Cc1ccc(O)cc1)C(=O)N[C@@H](CCCNC(N)=O)C(=O)N[C@@H](CC1CCCCC1)C(=O)N1CCC[C@@H]1C(=O)N[C@H](Cc1ccc(O)cc1)C(=O)N[C@@H](CCCNC(=N)N)C(N)=O) [Example 6]”, the “inhibition” value stood at 55%.
